This note sets out measurements from article PMC5521740.

The series concerns the target T1, His-CRP (cAMP receptor protein) (Klebsiella pneumoniae NTUH-K2044) (UniProt A0ACD7U7W2).
T1 sequence: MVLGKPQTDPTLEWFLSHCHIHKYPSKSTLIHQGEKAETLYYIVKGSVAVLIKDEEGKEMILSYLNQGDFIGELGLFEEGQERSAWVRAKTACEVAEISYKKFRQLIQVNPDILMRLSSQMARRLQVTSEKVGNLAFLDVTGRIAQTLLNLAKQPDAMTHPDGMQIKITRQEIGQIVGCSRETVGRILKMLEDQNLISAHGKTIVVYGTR
The experiment in a line: DNase I footprinting. The following applies: 5x binding buffer ([…], room temperature, 20 min ([…]) or 30 min ([…].

For the sequence “ATACCGGCAGCTGCGAGTAATTTTACGTTTTTCATGGTGTTTGTCCTTTTAACTTTTATGGTGGAAAGCATGTTTGCTTTCGATGGACTTATAATAAGTCTGCTAACTATAACGCGCGTGGCAAAAAGTGCGATTTAGATCACATTTTTATGGCGGTTTGATGGCGTAAACATGATCGTTTATCTATTTTTTAATTTAAAAACAATCAATTAATGATTTGCTTCTGAAAGGGGGTATCACAT (double strand) [KP1_4563 promoter footprinting fragment]”, the binding result is on record as “binds”.
